# Laboratory results published in patent US20250145673A1.
# How the values were obtained:
# C3b [1] = target: C3b (UniProt P01024); experiment: SPR, target amine-coupled to chip, single cycle kinetics, 1:1 Langmuir fit
# C3b [2] = target: C3b (UniProt P01024); experiment: ITC, binder titrated into target
# C3b [3] = target: C3b (UniProt P01024); experiment: ITC, polypeptide titrated into C3b; fit box in the lower panel
# C3b [4] = target: C3b (UniProt P01024); experiment: ITC
Kd (C3b [1]) [nM],-TΔS (C3b [2]) [kcal/mol],Kd (C3b [2]) [nM],N (C3b [2]),ΔG (C3b [2]) [kcal/mol],ΔH (C3b [2]) [kcal/mol],Ka (C3b [3]) [M⁻¹],Kd (C3b [4]) [nM],Binder
0.16,6.5,1.3,0.9,-12.1,-18.6,7.95e+08,1.3,polypeptide comprising the amino acid sequence of SEQ ID NO: 33 (designed binder) MVKVKFAATGEEKEVETSKIANVYRVGKDVLFSYDDQGKIGWGYVSEKDAPKELLDLLARAEREK
0.42,14.7,0.7,0.89,-12.5,-27.2,1.4e+09,0.7,polypeptide comprising the amino acid sequence of SEQ ID NO: 34 (designed binder) MVKVKFDATGEEKEVETSKISAVYRTGKDVLFSYDDQGKIGWGYVSEKDAPKELLDLLARAEREK
1.92,23.9,2.6,0.95,-11.7,-35.6,3.88e+08,2.6,polypeptide having the amino acid sequence of SEQ ID NO: 27 (designed binder) MVKVKFEATGEEKEVDTSKIYQVYRSGKEVLFTYDDNGKTGWGYVSEKDAPKELLDMLARAEREK
